According to paper PMC3946817 (Journal of molecular biology, 2013):

Target: the molecule itself
Test: ThT fluorescence + AFM

B1: peptide P3 (V426ANAFIICGTLYTVSSY) of myoc-OLF (peptide)
peptide: VANAFIICGTLYTVSSY
  binding result: binds

B2: peptide P1 (G326AVVYSGSLYFQ) of myoc-OLF (peptide)
peptide: GAVVYSGSLYFQ
  binding result: binds
